Assay results published in paper PMC11375965 (Nature, 2024).

Biological target: the molecule itself
Experiment: cryo-EM structure

B1: human INF2 (inverted formin-2) residues 469-1249 (domain or fragment)
chain: not shown
B1: binds.
